Assay results from the DeepSol protein solubility set.

Assay: soluble on expression in E. coli; label from the status in PepcDB or PDB records

Row | Sequence | soluble on expression in E. coli
1 | MLKTPLYESHMAANAKMVDFSGWSMPINYGSQIQEHNNVREDCGIFDVSHMLAVDIQGSEAEKFLRYLLANDVAKLQENKAQYGCMLNHDAGIVDDLITYKVTDEHFRIVVNAGNRESDVAWFNQNAQNFDVAITPQTDLAIVAVQGPKAVAVIKRVVTKEIATEIEALLPFSFKFFSKWMVARTGYTGEDGFEVILPATQVKKFWDSLLENGAQPAGLGARDTLRLEAGMHLYGADMDTSTTPLERGLGWSVDLSDEHRDFIGKKAYFAKKAQGVDTKWVGVVLKTKGVLRAGQEIDFDNGEKGYITSGSFSPTLKVAIGLAYVPKQADNPVVNIRGKELEVELVKPKFVKNGKSLI | not soluble
2 | MLLALKGIRKVYRMGEVAFSALKGVDLEVEEGEMLAIMGPSGSGKSTLLHILGLLDRPTEGEYVLMDRPTSRLAEDERAFLRNRFLGFVFQAFFLLPRLSALENVEVPLAYAGVPPGTRRRRALELLERVGLLEKANNLPNQLSGGQRQRVAIARALALNPPLLLADEPTGALDTRTGEEILALFQELNREGTTVILVTHEPHVAEKTNRIVRVLDGEIVADERRHHG | soluble
3 | MLLNEIPWTIPLTVRLSNGLTHTFASVYEALDFLENEWPLRKGERYERAVRTCRRALNRMTPAAVAREAFIAACLEAGMPLVMAPPAREPQGDTVKAAHTA | not soluble
4 | MLLREINRYCKEKATGKRIYAVPKLWIPGFFKKFDEKSGRCFVDPYELGAEITDWILNQSREWDYSQPLSFLKGEKTPDWIKRSVVYGSLPRTTAAYNHKGSGYYEENDVLGFREAGTFFKMMLLLPFVKSLGADAIYLLPVSRMSDLFKKGDAPSPYSVKNPMELDERYHDPLLEPFKVDEEFKAFVEACHILGIRVILDFIPRTAARDSDLIREHPDWFYWIKVEELADYTPPRAEELPFKVPDEDELEIIYNKENVKRHLKKFTLPPNLIDPQKWEKIKREEGNILELIVKEFGIITPPGFSDLINDPQPTWDDVTFLRLYLDHPEASKRFLDPNQPPYVLYDVIKASKFPGKEPNRELWEYLAGVIPHYQKKYGIDGARLDMGHALPKELLDLIIKNVKEYDPAFVMIAEELDMEKDKASKEAGYDVILGSSWYFAGRVEEIGKLPDIAEELVLPFLASVETPDTPRIATRKYASKMKKLAPFVTYFLPNSIPYVNTGQEIGEKQPMNLGLDTDPNLRKVLSPTDEFFGKLAFFDHYVLHWDSPDRGVLNFIKKLIKVRHEFLDFVLNGKFENLTTKDLVMYSYEKNGQKIVIAANVGKEPKEITGGRVWNGKWSDEEKVVLKPLEFALVVQE | soluble
5 | MLMFDPVPVKQEAMDPVSVSYPSNYMESMKPNKYGVIYSTPLPEKFFQTPEGLSHGIQMEPVDLTVNKRSSPPSAGNSPSSLKFRSSHRRASPGLSMPSSSPPIKKYSPPSPGVQHFGVPLSMPPVMAAALSRHGIRSPGILPVIQPVVVQPVPFMYTSHLQQPLMVSLSEEMENSSSSMQVPVIESYEKPISQKKIKIEPGIEPQRTDYYPEEMSPPLMNSVSPPQALLQE | soluble
6 | MLNIIRAGIYTSVQDSGRHGFRQSGLSHCGALDKPAFQTANLLVGNDANAPALEITLGQLVVEFENETWFALTGAGCEAQLDDQPVWTGWRLPVKAGQRLTLHRPLHGMRSYLAVAGGIAVPEVMGSYSTDLKSGIGGLEGRLLKDGDRLATGKPSRQFSGPQGVKQLLWGNRIRALPGPEYREFDRASQEAFWRSPWQLSPQSNRMGYRLQGQSLTRTTDRELLSHGLLPGVVQVPYNGQPIVLMNDAQTTGGYPRIACIIEADMYHLAQIPLGQPIHFVQCSLEEALNARRERQRYLEQLTWRLQHEHLEHHHHHH | not soluble
7 | MLNKLSLLLKDAGISLTDHQKNQLIAYVNMLHKWNKAYNLTSVRDPNEMLVRHILDSIVVAPYLQGERFIDVGTGPGLPGIPLSIVRPEAHFTLLDSLGKRVRFLRQVQHELKLENIEPVQSRVEEFPSEPPFDGVISRAFASLNDMVSWCHHLPGEQGRFYALKGQMPEDEIALLPEEYQVESVVKLQVPALDGERHLVVIKANKILEHHHHHH | not soluble
8 | MLNRIIEHMNAHHVEDMKGLLKKFGQVHHAENVAFKSVDSQGIVIGYNNNQTLRIEFNHEVKDPKDYKNATIELCQSVEKTHDLKGVEEEVKAFKEGFDSVCLATLHPNGHVVCSYAPLMSDGKQYYIYVSEVAEHFAGLKNNPHNVEVMFLEDESKAKSAILRKRLRYKTNTRFIERGAEFDKAFDSFIEKTGGAGGIKTIRAMQDFHLIALDFKEGRFVKGFGQAYDILGDKIAYVGDKGNPHNFAHKKLEHHHHHH | soluble
9 | MLNTHSCIFHRGVNGSEPLLPVVNGVNICGNPRIISCCLLPLVNPCKPMSTGFDFVAIKKSRTFTAIEIRHKNMRKMAEQQIRCAKC | not soluble
10 | MLPHTGLFLLGKVALQMRIRRRLKQGVIMAKTNNKPETAETAAPSFEDIKAELDAVQAELAAARNDVEMLTTALEKAEDDKKALSAELAELKVQHTQRAADALADSRDVMLVSTGADGKEFWRGGLLFDGGWREVKRAEVGEAVWKAICAEPMLQRKAVE | not soluble
11 | MLPQLKAQFKEREPDVREYNADILVVGGGLGGVAAALGALRNGRSVILTEAFEWIGGQLTSQAVPPDEHSWVEQFGITASYRALRTGVRQYYRDHYPLTDAARADLTLNPGDGNVSRLCHEPRVSLAVMEAMLAPFAAGGKLTILKPYEPIAADVEGDTVRAVTLRHCNTSDLVSCSARYIIDATELGDLLPLTATDYVTGFEAQSETGEPSAPAEAQPHNQQAVSICFAVDQVDGNHVIDKPARYDHWRQVAPEFWGGPLLSWDSPNPRTLERSRRFFDPNPVDNATRDVADQRHSAGDMSLWIFRRIAARHTFRPGAYASDICLVNWPMIDYFEAPIIDVTPEQYAERLADAASLSYSMFYWMQTEAPRPDGGQGFPGLRLRGDITGTEHGLAMAPYIRESRRIRALTTVVEQDLSLAVRGDRGAVHYPDSIGIGMYRIDLHPSTGGDNYIDVGACPFEIPLGALISRHKTNLLAASKNIGTTHITNGCYRLHPVEWNIGEVAGMLAAYCLDKGETPHGVHADEKRLAEFHTHIERQGVERHWPDIRGYLEHHHHHH | not soluble
12 | MLPSKEELLALLSKECELYASIPDSEQQKKRNKKHFINGLMTACRVVGISFEELNTIIEQMPKKPIFKDLDEQLSVPTYVRNRVDIKL | not soluble
13 | MLQGHRTWVFENKPVIISTGVVGGPFEAKGNIPEDFDILHEDLWLGQDSYEKAHKILFEEACSRATEKAELRKDDIQFVLAGDLINQITPTSFACRTLGTPYLGLFGACSTSMEGLALGASIVNAKGAKYLLTGASSHNTAVEKQFRYPTEYGGQKPPTAQWTVTGAGAAILSDTGHGPRVTSATIGRVIDMGLTDPFNMGGAMAPAAVDTIEAHLRERQIDASYYDLIVTGDLGHVGREIAYDLLHKHGTKVTSEQFQDCGIIIYREGQPVIAGASGPGCSATVVYGHLLNRMKRGEFKKILVVATGALLSPLTFQQEETIPCIAHAVSIEFGGATQLEHHHHHH | soluble
14 | MLQRSVFFLSDRTGITAETLGHSLLTQFDGIEWKKHYASFLDSAAKAQAVIEQINTIAEQEGQPALVFSTLLDPVMLASIRRADCVLFDFFETCLGTLEAVLQQPPARIPGRSHVLRQDASYFRRIAAIQYALNSDDGANAKILADADVIVVGVSRTGKTPVCVYLALQYGVLAANYPFTPEDMGAIQLPPLLQPLRKKLFGLTLNTSRLQSIREERYPGSHYASFAECQRELQWQNELYRQFDIPSINTTDVSIEEISASIVNRAHLERRQHGTLEHHHHHH | not soluble
15 | MLRHHSCALLMLILVFVEVFATQSPTFDRQDRDYRPLQFGKRDGYRPLQFGKRDYRPLQFGKRSSGSSGPVVLEPIWEWQ | soluble
16 | MLRHSPSLWELVEEHVPLRERREVKRILGEAAVDLSLELRAEVAMLRALLQEARSSQAPSSRPISDPSSLLAPPPLLKDLLRQELRQLLQGLRHKAICEGRDQAQAWVQYSPRVLHFALEEPRCDLPEQEIFQMRGGGPSSGHRDLSIIKDQLNVSNIDQVARHLRGLLEEECHTLEREILILQRCLEEEYLRPCHPSEAALEPTLAELKEQKKAMEQELQASVGPSCVSPNHRQRPLGSSTQGLRPPLPLCGVAPLQCCLPAPPLEPYLRPRGQSATHRWGRQLQCSPREGPASTPMSSAAPQAPA | soluble
17 | MLRIYAPASSANISVGFDTLGAAISPIDGSLLGDVVQIESISTGFELESAGYFVRKLPKEPQKNIVYQAYVLFSEQLKLRGANVKPLRLTLEKNMPIGSGLGSSACSIVAALVALNQFHNEPFSKMELLEMMGELEGRISGSIHYDNVAPCYLGGVQFMVQS | not soluble
